Data as given in the nanobody polyreactivity screen of Harvey et al. (2022).

Test: yeast display, Sf9 membrane polyspecificity reagent, FACS + sequencing; frameworks hold sequencing errors
Summary of the method: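 Sorting gates, low and high (top ~1%), were placed on anti-HA fluorescence to track expression and on streptavidin fluorescence to track reagent binding. A clone's polyreactivity label is taken from the gate it came out of. The reagent was 10% biotinylated, detergent-solubilized Sf9 membrane, applied for 1 hour at 4 °C to galactose-induced yeast display cells.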

Sequence | polyreactivity (PSR sort gate)
QVQLVETGGGLVQAGGSLRLSCAASGFIQSGYAMGWYRQAPGKERELVATITWRDGSTYYADSVKGRYTISRDNAKNTVYLQKNSLKPEDTEVYYCAVAAYSRRSPYYHYNYWGQGTQVTVSS | high polyreactivity
QVQLVETGGGLVQAGGSLRLSCAASGFTFRFYAMGWSRQPPGKERELVAAISRGGSTYYADSVKVRFTISRYNEKNTVYLQMNSLKPEDTAVYYCAKRGRYGGYWGQGTQVTVSS | high polyreactivity
QVQLVETGGGLVQAGGSLRLSCAASGFTLYYYARGWYRQAPGKERELVAAITARGVSTYADSVKGRFTISRDNAKNTVYLQMNSLKPEDTAVYYCAADRRYNVIGEFGYWGQGTQVTVSS | low polyreactivity
QVQLVETGGGLVQAGGSLRLSCAASGGIFVANAMGWYRQAPGKERELVAAISKRGGSTTYADSVKGRFTISRDNAKHTVYLQMNRLKPEDTAVYYCAKVVSPVYLYPSGYDYWGQGTQVTVSS | low polyreactivity
QVQLVETGGGLVQAGGSLRLSCAASGITLYFYAMGWSRQAPGKEREMVAGISGSVGSTHYADSVKGRFTISRDNAKNTVYSQMNSLKPEDTAVYYCDAAQVGYYVASVTYGYWGQGTQVTVSS | high polyreactivity
QVQLVETGGGLVQAGGSLRLSCAASGLIFTINAMGWYRQAPGKERELVAAITNGDSTHYADSVKGRFTISRDNAKNTVYLQMNSLKPEDTAVYYCAARSYTYYGLRFGYWGQGTQVTVSS | high polyreactivity
QVQLVETGGGLVQAGGSLRLSCAASGLTFYYYTMGWYRQAPGKERELVAAITSGGSTYYADSVKGRFTISRDNAKNTVYLQMNSLKPEDTAVYYCAAVPSRYGRYRYYYWGQGTQVTVSS | high polyreactivity
QVQLVETGGGLVQAGGSLRLSCAASGNTFGDYAMGWYRQAPGKERELVAAISRSGGSTSYADSVKGRFTISRDNAKNTVYLQMNSLKPADTAVYYCAAYWQRFGYDYWGQGTQVTGSS | low polyreactivity
QVQLVETGGGLVQAGGSLRLSCAASGNTFKYYAMGWYRQAPGKERELVAAISYSGGSTYYADSVKGRFTISRDNAKNTVYLQMNSLKPEDTAVYYCAADLDSERYYWGQGTQVTVSS | low polyreactivity
QVQLVETGGGLVQAGGSLRLSCAASGRIFPFYAMGWYRQAPGKERELVAAISWNGGSTFYADSVKGRFTISRDNAKNTVYLQMHSLKPEDTAVYYCNADFRPAYTYDYWGQGTQVTVSS | low polyreactivity
QVQLVETGGGLVQAGGSLRLSCAASGRIFTYYAMGWYRQAPGKERELVAGISSRGTRTYYADSVKGRFTISRDNAKNTVYLQMNSLKPDDTAVYYCAAYPQFWYWDYNYWGQGTQVTVSS | high polyreactivity
QVQLVETGGGLVQAGGSLRLSCAASGRIFYYYAMGWYRQAPGKERELVAAITRGGGTYYADSVKGRFTISRDNAKNTVYLQMYSLKPEDTAVYYCAKRGPPESHHPYRYRFDYWGQGPQVTVSS | low polyreactivity
QVQLVETGGGLVQAGGSLRLSCAASGRIIDTYAMGWYRQAPGKERELVAAITRRGGSTYYADSVKGRFTISRDNAKNTVYLQMNSLKPEDTAVYYCAKSLVNRHYDYWGQGTQVTVSS | low polyreactivity
QVQLVETGGGLVQAGGSLRLSCAASGRTFKFYAMGWYRQAPGKEREFVAVINRSGVNTHYADSVKVRFTISRDNAKNTVYLQMNSLKPEDTAVYYCAKYVYPLDHVAGYDYWGQGTQVTVSS | low polyreactivity
QVQLVETGGGLVQAGGSLRLSCAASGRTFSGYAMGWSRQAPGKERELVASITWSGGSTYYADSVKGRFTISRDNAKNTVYLQMNSLKPDDTAVYYCARDSPRGRVGFNYWGQATQVTVSS | low polyreactivity
QVQLVETGGGLVQAGGSLRLSCAASGRTIVYYDMGWYRQAPGKEREFVSTITSSGGSTYYADSVKGRFTISRDNAKNTVYVQMNSLKPEDTAVYYCAAYPYIRYSKVSKYYYWGQGTQVTVSS | high polyreactivity
QVQLVETGGGLVQAGGSLRLSCAASGRTLYYYAMGWYRQAPGKERELVAAITRSGGSTYYADSVKGRFTISRDNAKNTVYLQMNSLKPEDTEVYYCNKYGYKGGVGYDYWGQGTQVTVSS | high polyreactivity
QVQLVETGGGLVQAGGSLRLSCAASGSIFASYAMGWYRQAPGKERELVAAITTSGGRTYYADSVKGRFTISRDNAKNTVYLQMNSLKPEDTAVYYCAVRYRGYGYDWGQGTQVTVSS | high polyreactivity
QVQLVETGGGLVQAGGSLRLSCAASGSIFERYAMGWYRQAPGKEREFVATITSGGGRTYYADSVKGRFTISRDNAKNTVYLQMNSLKPEDTAVYYCAAASYRRQPFNYWGQGTQVTVSS | high polyreactivity
QVQLVETGGGLVQAGGSLRLSCAASGSIFEYNGMGWYRQAPGKERELVAAITTTGTTDYADSVKGRFTISRDNAKNTVYLLMNSLKPEDTAVYYCAADYTYYYKGEYDYWGQGTQVTVSS | low polyreactivity
QVQLVETGGGLVQAGGSLRLSCAASGSIFGGYAMGWYRQAPGKERELVAGITRSGGSTYYADSVKGRFTISRDNAKNTVYLQMNSLKPEDTAVYYCAVEIQFYRSPRKVRSYDYWGQGTQVTVSS | low polyreactivity

Sequence | polyreactivity (PSR sort gate)
QVQLVETGGGLVQAGGSLRLSCAASGSIFITYLMGWNRQAPGKERELVDGISRSGGSTYYADSVKGRFTISRDNAMNTVYLQMNSLKPEDTAVYYCAAFFLRRPGSSGLRLLGQGTQVTVSS | high polyreactivity
QVQLVETGGGLVQAGGSLRLSCAASGSIFTRYVMGWYRQAPGKERELVAAISRSSGRTYYADSVKGRFTISRDNAKNTVYLQMNSLKPEDTAVYYCAAYAVESYKYDYWGQGTQVTVSS | high polyreactivity
QVQLVETGGGLVQAGGSLRLSCAASGSIFVPYGMGWYRQAPGKERELVAAIRKRGSSTYYADSVKWRFTNSRDNAKNTVYLQMNSLKPEDTAVYYCASTWVSVWYRYDYWGQGTQVTVSS | high polyreactivity
QVQLVETGGGLVQAGGSLRLSCAASGSIQWNAMGWYRQAPGKERELVAVINTGGSTYADSVKGRFTISRDNAKNTVYLQMNMLKPEDTAVFYCAARVPFTLLKGKQYGYWGQGTQVTVSS | low polyreactivity
QVQLVETGGGLVQAGGSLRLSCAASGSNFLPNAMGWYRQAPGKERELVARISYSGGNTYYADSVKGRFTISRDNAKNTVYLQMNSLKPEDTAVYYCATSHYYNDYTGRRYYYWGQGTQVTVSS | high polyreactivity
QVQLVETGGGLVQAGGSLRLSCAASGSTFGINAMGWYRQAPGKERELVAAITASGCRTYYADSVKGRFTISRDNAKNTVYLQMNSLKPEDNAVYYCAARGTYYRRYDYWGQGTQVTVSS | low polyreactivity
QVQLVETGGGLVQAGGSLRLSCAASGSTFQPYAMGWYRQAPGKERELVAAIRSIAGSTYYADSVKGRFTISRDNAKITVYLQMNILKPDDTAVYYCAADWWRVEMDYWGQGTQVTVSS | low polyreactivity
QVQLVETGGGLVQAGGSLRLSCAASGSTFVYNAMGWYRQAPGKERELVASITRSGSSTYYADSVKGRFTISRDNAKNTVYLQMNSLKPEDTAVYYCAVRYSVLSNYRYYYWGQGTQVTVSS | low polyreactivity
QVQLVETGGGLVQAGGSLRLSCAASGTIFKKYAMGWYRQAPGKERELVAAITRGTYYADSVKGRFTISRDNAKNTVYLQMNSLIPEDTAVYYFNREYWGRGYYRVRGEYDYWGQGTQVTVSS | low polyreactivity
QVQLVETGGGLVQAGGSLRLSCAATGLNFWLYAMAWYRQAPGKEREFVAVISWSGGTTYYADSVKGLFTISRDYAKNTVYLTMTTLIPEDTAVYFCAAQVCYYTNYREFDYWGQGTQVTVSS | low polyreactivity
QVQLVETGGGLVQAGGSLRLSCAPSGFIFYRNTMGWYRQAPGKERELDATISRRGGSTYYADSVKGRFTISRDNAKNTVYLQMNSLKPEDTAVYYCADGPRFSYYTHRYGYWGEGTQVTVSS | high polyreactivity
QVQLVETGGGLVQAGGSLRLSGAASGRIFWVNAMGWYRQAPGKERELVAVISRGGSTTYADSVKGRFTISRDNAKNTVYLKMNSLKPEDTAVYYCAADAYRHAFLYYGYDYLGQGTQVTVSS | low polyreactivity
QVQLVETGGGLVQAGGTLRLSCADSGFTFHQYTMGWYIPAPGKERELVAAITGTGDTYYADSVKGRFTISRDNAKNTVYLQMNSLKPEDTAVYYCNALYVYRSVANFDYWGQGTQVTVSS | high polyreactivity
QVQLVETGGGLVQAVGSLRLSCAASGYTFLLYAMGWYRQAPGKERELVASISWNVGSTYYADSVKGRFTISRDNAKNTVYLQMNSLKPEDTAVYYCARGYERPRVATFHRFDYWGLGTQVTVSS | low polyreactivity
QVQLVETGGGLVRAGGSLRLSCAASGRPFGRYAMGWYRQGPGKETELVAAITRTGITNYEVSVKGRFTISRDNAKNTVYLHMNSLNPEDTAVYYGAARRWLNCYGTGYGYWGQGTLVTVSS | high polyreactivity
QVQLVETGGGVVHAGGSLRLSCAASGRIFRVDDMGWYRKAPGQERELVATINPTGGSTSYADSVKGRFTNSRDNAKNTVYLQMNSLTTEDTAVYYCAADCWYSVRKNWSRSGSFPFDYWRQGTQVTVSS | high polyreactivity
QVQLVETGGRLVQAGGSLRLSCAASGFTFWTYAMGWYRQAPGKERELVAAISTSGGSTYYADSVKGRFTISRDNAKNTVYLQMNSLKPEDTAVYYCSAYAIGEHFRARYGYWGQGTQVTVSS | high polyreactivity
QVQLVETGGRLVQAGGSLRLSCAASGSTFDIYVIGWSRQAPGKERELVAAISRVGNTSYADSVKGRFTISRDNAKNTVYLQMNSLIPEDTAVYYCAADAPSWYDRQYDYWGQGTQVTVSS | low polyreactivity
QVQLVETGGVLVQAGGSLRLSCAASGRTFVYNAMGWYRHAPGKEREFVAAIDGGTGSTYYADSVKGRFTISRDNAKNTVYLQMNSLKPEDTAVYYCAVETYGGGYPVTYDYWGQGTQVTVSS | low polyreactivity
QVQLVETGRGLVQAGGSLRLSCAASGRIFRGYAMGWYRQAPGKERELVAAINWSGGNTYYADSVKGRFTISRDNAKNTVYLQMNSLKPEDTAVYYCATLGYLGGGYWGQGTQVTVSS | high polyreactivity
